From patent CN115521375A (INST PASTEUR SHANGHAI CAS, dated 2022)

What was measured:
Experiment in all cases: cell-based or functional assay
[1] = biological target: SARS-CoV-2 B.1.351假病毒的S蛋白 (SARS-CoV-2 B.1.351)
[2] = biological target: SARS-CoV-2 B.1.617假病毒的S蛋白 (SARS-CoV-2 B.1.617)
[3] = biological target: SARS-CoV-2 B.1.1.7假病毒的S蛋白 (SARS-CoV-2 B.1.1.7)

| Binder | 半数抑制浓度(IC50), 假病毒中和试验 [1] [µg/mL] | 半数抑制浓度(IC50), 假病毒中和试验 [2] [µg/mL] | 半数抑制浓度(IC50), 假病毒中和试验 [3] [µg/mL] | 中和IC50, 假病毒中和试验 [1] [µg/mL] | 中和IC50, 假病毒中和试验 [2] [µg/mL] | 中和IC50, 假病毒中和试验 [3] [µg/mL] |
| --- | --- | --- | --- | --- | --- | --- |
| 单抗5G2 (antibody, also called 抗体5G2) heavy: EVLLQQSGPELVKPGASVKIPCKASGYTFTDYNMDWVKQSHGKSLEWIGDINPNSGFIIYNQKFKGKASLTVDKSSSTAYMELRSLTSEDTAVYYCAREGYGNNFDYWGQGTTLSVSSAKTTPPSVYPLAPGCGDTTGSSVTLGCLVKGYFPESVTVTWNSGSLSSSVHTFPALLQSGLYTMSSSVTVPSSTWPSQTVTCSVAHPASSTTVDKKLEPSGPISTINPCPPCKECHKCPAPNLEGGPSVFIFPPNIKDVLMISLTPKVTCVVVDVSEDDPDVQISWFVNNVEVHTAQTQTHREDYNSTIRVVSTLPIQHQDWMSGKEFKCKVNNKDLPSPIERTISKIKGLVRAPQVYILPPPAEQLSRKDVSLTCLVVGFNPGDISVEWTSNGHTEENYKDTAPVLDSDGSYFIYSKLNMKTSKWEKTDSFSCNVRHEGLKNYYLKKTISRSPGK light: DILLTQSPTILSVSPGERVSFSCRASQSIGTSIHWYQQRTKGSPRLLIKYASESISGIPSRFSGSGSGTDFTLSINSVESEDIGDYYCQQSYSWPTTFGAGTKLELK | 0.367 | 0.103 | 0.482 | – | – | – |
| 单抗3H3 (antibody, V domains shown, also called 抗体3H3) VH: QVQLQQPGAELVRPGASVKLSCKASGYSFTRFWMNWVKQRPGQGLEWIGMIHPSDSETRLNQKFKDKATLTVDKSSTTAYMQLSSPTSEDSAVYYCARKDYDYDAWFAYWGQGTLVTVSA VL: DIVLTQSPASLAVSLGQRATISCRASKSVSASVYSYMHWYQQKPGQPPKLLIYLASSLESGVPARFSGSGSGTDFTLNIHPVEEEDAATYYCHHSRELPPAFGGGTKLEIKR | – | – | – | 0.107 | 0.098 | 0.191 |
